# Laboratory results from patent publication US20230039694A1, “H[…] REDUCTASE AND USES THEREOF” (Southwest University, priority 2019, published 2023).
# B1: HAR: Hyoscyamine aldehyde reductase from Atropa belladonna, amino acid sequence SEQ ID NO. 4, encoded by SEQ ID NO. 3 (protein, listed as Atropa belladonna)
# chain: MDSSGVLSPFTFSRRATGEEDVRLKVLYCGICHSDLGCIKNEWGWCSYPLVPGHEIVGIATEVGSKVTKFKVGDRVGVGCMVGSCGTCQNCTQNQESYCPEVIMTCASAYPDGTPTYGGFSNQMVANEKFVIRIPNSLPLDAAAPLLCAGSTVYSAMKFYGLCSQGLHLGVVGLGGLGHVAVKFAKAFGMKVTVISTSLGKKEEAINQLGADSFLINTDTEQMQGAMEVMDGIIDTVSALHPIEPLLGLLKSHQGKLIIVGLPNKQPELPVFSLINGRKMIGGSAVGGVKETQEMIDFAAEHNITADIEIVPMDYVNTAMERLEKGDVKFRFVIDVENTLVAAQT
# Columns and labels:
# [1] = Verification on enzyme activity of HAR: hyoscyamine aldehyde reduction reaction, product identified by high-resolution mass spectrometry; format: biochemical, Atropa belladonna; conditions: phosphate buffer pH 6.4, 0.2 mM NADPH-4Na, 1 mM hyoscyamine aldehyde, 30 μg HAR protein, 1 h at 37.5° C.
# Method: The constructed pET28a-HAR plasmid was converted to a prokaryotic expression stain BL21, and a positive clone was screened with PCR to obtain prokaryotic expression engineering bacteria BL21-pET28a-HAR. 100 μL of BL21-pET28a-HAR bacterial liquid was inoculated to a 30 mL of LB liquid medium containing 100 mg/L kanamycin for overnight culture at 37° C. and 200 rpm. Then, a product was respectively inoculated to 400 mL of LB liquid medium according to a ratio of 1 to 50 for activated culture at 37° C. and 200 rpm, and when OD600 was about 0.6, IPTG was added until a final concentration reached 1 mM. Culture was continued for 6 h at 37° C. and 200 rpm. The harvested bacterial liquid was subjected to centrifugation at 8000 rpm, and a supernatant was removed. Then precipitate bacteria were resuspended with a phosphate buffer, subjected to ultrasonication and then purified with a Ni-NTA filler from GE Company to obtain an HAR protein.
# A hyoscyamine aldehyde reduction reaction system catalyzed by the HAR was as follows: a phosphate buffer (pH 6.4), 0.2 mM NADPH-4Na, 1 mM hyoscyamine aldehyde and 30 μg of HAR protein were incubated for 1 h at 37.5° C., and a reaction product was identified using a high-resolution mass spectrometer. […]
# [2] = tested on: Atropa belladonna hairy roots; test: Content of hyoscyamine in transgenic Atropa belladonna hairy roots with HAR over-expression (HPLC); format: cell-based
# From the text: In order to study the effect of an HAR gene on tropane alkaloids in Atropa belladonna, a pericycle-specific high-expression vector PMT promoter::HAR was constructed, and an original plasmid was pBI121. Firstly, a 35S promoter on the original plasmid pBI121 was substituted with an AbPMT promoter by using digestion sites HindIII and Xba I; and the AbPMT promoter was subjected to PCR amplification with Atropa belladonna cDNA as a template and sequences as shown in SEQ ID NO. 7 and SEQ ID NO. 8 as primers. Then a GUS gene on the original plasmid was substituted with the HAR gene by using digestion sites BamHI and SacI; and the HAR gene was subjected to PCR amplification with Atropa belladonna cDNA as a template and sequences as shown in SEQ ID NO. 9 and SEQ ID NO. 10 as primers to obtain an HAR plant over-expression vector PMT promoter:: HAR. The primer sequences used were as follows: […]
# The hairy roots were harvested after being subjected to shaking culture for 30 d in an MS liquid medium, and a material was freeze-dried to a constant weight in a freeze dryer. […] The alkaloids were dissolved with 1 mL of liquid chromatography grade methanol; the solution was filtered with a filter membrane of 0.22 μm; the content of the alkaloids was determined with HPLC; and a result was an average of three repeated experiments, where an error bar indicated a standard deviation. […]
molecule,measurement,setting,value
B1,product of the hyoscyamine aldehyde reduction reaction catalyzed by the HAR,[1],a product of the hyoscyamine aldehyde reduction reaction catalyzed by the HAR was hyoscyamine
same,content of hyoscyamine relative to non-transgenic Atropa belladonna hairy roots,"[2]; AbHAR over-expression hairy roots versus non-transgenic hairy roots, same period",1.83-2.58 times
same,average content of hyoscyamine in hairy roots,"[2]; AbHAR over-expression hairy roots, 30 d shaking culture in MS liquid medium, ordinary hairy roots 2.32 mg/g DW",4.24-5.98 mg/g DW
